# Data reported in IntAct's records for PubMed 25772236.
# B1: E1B 55 kDa protein (Human adenovirus C serotype 5 (HAdV-5)), P03243-1 (parent)
# chain: MERRNPSERGVPAGFSGHASVESGCETQESPATVVFRPPGDNTDGGAAAAAGGSQAAAAGAEPMEPESRPGPSGMNVVQVAELYPELRRILTITEDGQGLKGVKRERGACEATEEARNLAFSLMTRHRPECITFQQIKDNCANELDLLAQKYSIEQLTTYWLQPGDDFEEAIRVYAKVALRPDCKYKISKLVNIRNCCYISGNGAEVEIDTEDRVAFRCSMINMWPGVLGMDGVVIMNVRFTGPNFSGTVFLANTNLILHGVSFYGFNNTCVEAWTDVRVRGCAFYCCWKGVVCRPKSRASIKKCLFERCTLGILSEGNSRVRHNVASDCGCFMLVKSVAVIKHNMVCGNCEDRASQMLTCSDGNCHLLKTIHVASHSRKAWPVFEHNILTRCSLHLGNRRGVFLPYQCNLSHTKILLEPESMSKVNLNGVFDMTMKIWKVLRYDETRTRCRPCECGGKHIRNQPVMLDVTEELRPDHLVLACTRAEFGSSDEDTD
# B2: E1B 55 kDa protein (Human adenovirus C serotype 5 (HAdV-5)), P03243-1 (parent)
# chain: B1 chain
# partner: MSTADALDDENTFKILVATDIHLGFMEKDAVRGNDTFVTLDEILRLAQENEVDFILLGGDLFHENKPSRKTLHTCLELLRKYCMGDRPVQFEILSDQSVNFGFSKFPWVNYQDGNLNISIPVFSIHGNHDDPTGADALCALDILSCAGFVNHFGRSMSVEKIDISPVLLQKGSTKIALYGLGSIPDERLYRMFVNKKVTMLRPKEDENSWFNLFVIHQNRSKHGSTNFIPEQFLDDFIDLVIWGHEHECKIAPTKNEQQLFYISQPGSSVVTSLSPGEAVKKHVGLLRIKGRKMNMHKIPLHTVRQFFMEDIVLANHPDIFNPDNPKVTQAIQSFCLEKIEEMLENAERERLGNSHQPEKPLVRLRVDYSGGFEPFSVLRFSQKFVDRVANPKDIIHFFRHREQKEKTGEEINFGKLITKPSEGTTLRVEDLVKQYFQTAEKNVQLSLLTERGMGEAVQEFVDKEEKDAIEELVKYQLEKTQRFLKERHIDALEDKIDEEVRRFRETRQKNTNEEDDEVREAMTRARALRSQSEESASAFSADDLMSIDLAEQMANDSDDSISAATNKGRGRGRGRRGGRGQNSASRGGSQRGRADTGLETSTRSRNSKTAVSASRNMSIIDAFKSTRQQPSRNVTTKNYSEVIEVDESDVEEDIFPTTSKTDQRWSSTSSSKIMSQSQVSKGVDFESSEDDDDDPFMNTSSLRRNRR
# Variants of: B1
# Details: with PML
row,Variant,effect of a mutation on the interaction
1,K104R,decreasing interaction strength
2,R443A,decreasing interaction strength

# Variants of: B1
# Details: with DAXX
row,Variant,effect of a mutation on the interaction
1,R443A,decreasing interaction strength

# Variants of: B1
# Details: with PML
# Remark: another data set of the same source
row,Variant,effect of a mutation on the interaction
1,R448A;T449A;R450A,disrupting interaction strength

# Variants of: B2
# Details: with mre11_human MRE11, P49959
row,Variant,effect of a mutation on the interaction
1,K104R,decreasing interaction strength
